This passage reports stoichiometry N results from paper PMC8386121.

This test deals with recombinant human PD-L1-Fc fusion protein (dimeric form) (human). Description: SEC; SE-HPLC of the two bought PD-L1 ligands (Supplementary Figure S1); conditions not given.

Turning to “recombinant human PD-L1-Fc fusion protein (dimeric form)”, the stoichiometry N stood at 2.
